Non-standard residues stand in square brackets, D forms with d. No end group written: not given here. *: point of attachment. C16 alkyl = N-terminal C16 alkyl tail, CCCCCCCCCCCCCCCC*; pS = N[C@@H](COP(=O)(O)O)C(=O)O
How the values were obtained:
[1] = Gelation on addition of metal salts (vial inversion); format: physicochemical; details: for gelation in the presence of KCl or NaCl / result of addition of 200 mM of KCl: 10 mM PA solution; for gelation in the presence of KCl or NaCl: salt concentrations up to 6M; for gelation properties, KCl / gelation properties, BaCl2 / gelation properties, CaCl2 / gelation properties, GdCl3 / gelation properties, ZnBr2 / gelation properties, Cu(ClO4)2 / gelation properties, MgCl2: PA 10 mg/ml (roughly 8 mM); for gelation properties, BaCl2 / gelation properties, CaCl2 / gelation properties, GdCl3 / gelation properties, ZnBr2 / gelation properties, Cu(ClO4)2 / gelation properties, MgCl2: salt 20 mM; for minimal amount of CA+2 and Gd+3 ions needed for the gelation: titration
Procedure: 100 μl of 10 mg/ml solution of peptide-amphiphile 20 was treated with 1M CaCl2 (adjusted to pH 6) drop wise in 1 μl increments. The solutions were shaken after each addition of the CaCl2 solution in order to obtain better diffusion of the divalent metal ions. Gelation was immediate. […] This calcium induced self-assembly may be particularly useful for medical applications where formation of a gel at physiological pH is desired. Trivalent metal cations can also be used for gelation.
To determine the relative number of metal ions necessary for gelation of the PAs, titration experiments were performed with PA molecules 26 and 27. […] (See Table 3, below). […] None of the negatively charged peptide-amphiphiles except molecule 32 formed gels in the presence of KCl at a ratio 1 molecule of PA per 20 molecules of KCl.
(§1) The synthesis of the peptide amphiphiles illustrates in examples 19-22 was performed using a standard synthesis scheme described elsewhere, herein, and as further available in the literature. Regarding gelation and with reference to the data of Table 3, […] volumes of PA solutions at concentrations 10 mg/ml (approximately 8 mM), pH 7.5 were mixed with 1 M solutions of NaCl, KCl, MgCl2, CaCl2, BaCl2, ZnBr2, […], Gd^+3 and Cu(ClO4)2. The amount of polyvalent ions added to the solutions varied from 0.5 to 5 metal ions per molecule of PA. For monovalent metal ions the maximum concentration of 6 M of metal ions per 10 mM of PA molecules has been tested. The solutions of the metal salts were added to the PA solutions by micropeppetors, the solutions were stirred briefly, in order to obtain better mixing of the components. The formation of self-supporting gels was examined by flipping of the vials up side down. In order to test the ability of cell compatible solutions to induce a gelation of PAs equal amounts 10 mM PA solutions were mixed with following formulations: MEM-α, DMEM containing 10% of fetal bovine serum, PBS without Ca^+2 and Mg^+2 and Hank's solution without Ca^+2 and Mg^+2 (Gibco). The ability of the above solutions to induce formation of the PAs was examined visually by flipping the vials up side down.

[2] = Solubility, pH-dependent precipitation and gelation in water; format: physicochemical
Procedure: After synthesis (see, example 10), the PA of FIG. 1 (characterized by ^1H NMR and matrix-assisted laser desorption/ionization time-of-flight mass spectrometry (MALDI-TOF MS): matrix ion [M−H]^−1=1333) was treated with dithiothreitol (DTT) at a pH of 8 to reduce all cysteine residues to free thiols. […] However, upon acidification of the solution below pH 4 the material rapidly becomes insoluble. Solutions more concentrated than 2.5 mg/ml form birefringent gels in water that are self-supporting upon inversion of the container. […] Negatives were digitized in the Umax PowerLook scanner with resolution 1200 dpi. The average thickness of the PA fibers was determined by two different procedures. First the Fourier transform of the images and following measurements of the distances between the peaks were performed in the NIH Image […] program. The second approach applied was averaging technique based on the cross-correlation method, widely used in single particle reconstruction using the EMAN […] program. For each data set 1200-1300 individual boxes were selected.
Several PAs with basic amino acids that can self-assemble at alkaline pH and also mixed systems, in which oppositely charged PAs self-assemble at neutral pH, were prepared. For this purpose PA compounds 22-25 were prepared by standard solid phase peptide synthesis followed by alkylation with the C16 fatty acid, palmitic acid. See Table 2, FIG. 10b (PA 22) and FIGS. 10c-e (PAs 23-25). The peptides thus prepared were characterized by electrospray mass spectroscopy and found to correspond to their respective expected masses.
Solutions of each compound of example 6 were prepared at a concentration of 0.1 mg/m1 at neutral pH.

[3] = Gelation on mixing with cell culture media, PBS or Hank's solution; format: physicochemical; details: for gel formation on mixing with equal amounts of cell culture media: 10 mM PA solution in water; for gel formation on mixing with PBS and Hank's solutions depleted by Ca2+ and Mg2+: PA solution
From the text: One potential application of the peptide-amphiphile self-assembled gels is in the area of tissue engineering, in particular the formation of artificial extracellular matrices and cell delivery systems. The results of this example show PA self-assembly in situ and in vitro cell culture systems. Body fluids as well as cell culture media contain significant amounts inorganic cations. It was presumed that the peptide amphiphiles would form a gel upon mixing with these liquids.
as §1

[4] = Mineralization of PA nanofibers with CaCl2 and Na2HPO4 on TEM grid
Procedure: To investigate the mineralization properties of PA nanofibers of this invention, the material was assembled and mineralized directly on a holey carbon coated TEM grid—to allow study of the dynamics of the mineralization process while minimizing artifacts of TEM sample preparation. To prepare samples, a drop of aqueous PA (1 mg/ml) was mounted on the holey grid and the self-assembly of the PA was induced in an atmosphere of HCl vapor. The grids were immersed in aqueous iodine to oxidize the cysteine thiol groups to disulfides. After rinsing with distilled water, the PA coated grids were treated with 5 μl of 10 mM CaCl2 on one side and 5 μl of 5 mM Na2HPO4 on the other side. The two solutions are able to mix only by passing through the holes in the carbon support.
In a second control, a PA was prepared in which phosphoserine was replaced by serine and treated as above with calcium and phosphate.

[5] = KCl concentration up to 6M (molecules 26 and 27)

Substance	gelation properties, BaCl2 [1]	gelation properties, CaCl2 [1]	gelation properties, GdCl3 [1]	gelation properties, ZnBr2 [1]	gelation properties, KCl ([1]; KCl 200 mM, pH 7.5)	other results
20 ({C16 alkyl}-CCCCGGGSRGD-OH; cysteine pairing not given here) [compound 20]	–	–	–	–	–	gelation on dropwise addition of CaCl2 ([1]; 100 μl of 10 mg/ml PA, 1M CaCl2 (pH 6) in 1 μl increments): immediate
21 ({C16 alkyl}-CCCCGGGEIKVAV-OH; cysteine pairing not given here) [compound 21]	–	–	–	–	–	appearance of the solution ([2]; 5 mg/ml in water at pH 7): slightly cloudy
22 ({C16 alkyl}-CCCCGGGKIKVAV-NH2; cysteine pairing not given here) [compound 22]	–	–	–	–	–	appearance of the solution ([2]; 5 mg/ml in water at pH 7): slightly cloudy; appearance of the solution ([2]; 10 mg/ml, neutral pH): cloudy and viscous
24 ({C16 alkyl}-AAAAGGGKYIGSR-NH2; SMILES CCCCCCCCCCCCCCCCN[C@@H](C)C(=O)N[C@@H](C)C(=O)N[C@@H](C)C(=O)N[C@@H](C)C(=O)NCC(=O)NCC(=O)NCC(=O)N[C@@H](CCCCN)C(=O)N[C@@H](Cc1ccc(O)cc1)C(=O)N[C@H](C(=O)NCC(=O)N[C@@H](CO)C(=O)N[C@@H](CCCNC(=N)N)C(N)=O)[C@@H](C)CC) [compound 24]	–	–	–	–	–	pH above which a precipitate forms on slow addition of base ([2]; 0.1 mg/ml solution): above 9.5 pH; state at neutral pH ([2]; 0.1 mg/ml solution): completely dissolved; appearance of the solution ([2]; 10 mg/ml, neutral pH): cloudy and viscous
25 ({C16 alkyl}-AAAAGGGEIKVAV-OH; SMILES CCCCCCCCCCCCCCCCN[C@@H](C)C(=O)N[C@@H](C)C(=O)N[C@@H](C)C(=O)N[C@@H](C)C(=O)NCC(=O)NCC(=O)NCC(=O)N[C@@H](CCC(=O)O)C(=O)N[C@H](C(=O)N[C@@H](CCCCN)C(=O)N[C@H](C(=O)N[C@@H](C)C(=O)N[C@H](C(=O)O)C(C)C)C(C)C)[C@@H](C)CC) [compound 25]	–	–	–	–	–	pH below which the PA precipitates on slow acidification (HCl) ([2]; 0.1 mg/ml solution): < 4.5 pH; state at neutral pH ([2]; 0.1 mg/ml solution): completely dissolved; state on increasing the solution's pH (KOH) ([2]; 0.1 mg/ml solution): completely dissolved
26 (CCCCGGG[pS]RGD-OH; not fully specified (N-terminus); cysteine pairing not given here) [compound 26]	gel	gel	gel	gel	–	gelation in the presence of KCl or NaCl [1]: did not gel; gelation properties, KCl [1, 5]: Liquid; minimal amount of CA+2 and Gd+3 ions needed for the gelation [1]: about equal to the number of PA molecules in solution
27 (AAAAGGG[pS]RGD-OH; not fully specified (N-terminus); printed as Alkyl-A4G3S(P)RGD-COOH) [compound 27]	gel	gel	gel	gel	–	gelation in the presence of KCl or NaCl [1]: did not gel; gelation properties, KCl [1, 5]: Liquid; gelation properties, Cu(ClO4)2 [1]: gel; minimal amount of CA+2 and Gd+3 ions needed for the gelation [1]: about equal to the number of PA molecules in solution; gel formation on mixing with equal amounts of cell culture media [3]: gel formation was observed; gel formation on mixing with PBS and Hank's solutions depleted by Ca2+ and Mg2+ [3]: no gel formation was observed
28 (AAAAGGG[pS]KGE-OH; not fully specified (N-terminus)) [compound 28]	gel	gel	gel	gel	Liquid	gel formation on mixing with equal amounts of cell culture media [3]: gel formation was observed; gel formation on mixing with PBS and Hank's solutions depleted by Ca2+ and Mg2+ [3]: no gel formation was observed
29 (CCCCGGGSRGD-OH; not fully specified (N-terminus); cysteine pairing not given here) [compound 29]	gel	gel	gel	gel	Liquid	–
30 ({C16 alkyl}-AAAGGEQS-OH; SMILES CCCCCCCCCCCCCCCCN[C@@H](C)C(=O)N[C@@H](C)C(=O)N[C@@H](C)C(=O)NCC(=O)NCC(=O)N[C@@H](CCC(=O)O)C(=O)N[C@@H](CCC(N)=O)C(=O)N[C@@H](CO)C(=O)O) [compound 30]	gel	gel	gel	gel	Liquid	gelation properties, Cu(ClO4)2 [1]: gel; gelation properties, MgCl2 [1]: gel
31 ({C16 alkyl}-AAAAGGGERGDS-OH; SMILES CCCCCCCCCCCCCCCCN[C@@H](C)C(=O)N[C@@H](C)C(=O)N[C@@H](C)C(=O)N[C@@H](C)C(=O)NCC(=O)NCC(=O)NCC(=O)N[C@@H](CCC(=O)O)C(=O)N[C@@H](CCCNC(=N)N)C(=O)NCC(=O)N[C@@H](CC(=O)O)C(=O)N[C@@H](CO)C(=O)O) [compound 31]	–	–	gel	gel	liquid	–
32 (CCCCGGGEIKVAV-OH; not fully specified (N-terminus); cysteine pairing not given here) [compound 32]	–	gel	gel	gel	gel	result of addition of 200 mM of KCl [1]: formation of a self-supporting gel; gel formation in the presence of KCl ([1]; ratio 1 molecule of PA per 20 molecules of KCl): formed gels; gelation properties, MgCl2 [1]: gel
33 ({C16 alkyl}-CCCCGGGKIKVAV-NH2; cysteine pairing not given here) [compound 33]	–	–	–	–	–	result of addition of 200 mM of KCl [1]: formation of a self-supporting gel; gel formation on mixing with equal amounts of cell culture media [3]: gel formation was observed
Alkyl-C4G3SRGD-COOH ({C16 alkyl}-CCCCGGGSRGD-OH; cysteine pairing not given here) [PA 29]	–	–	–	–	–	mineral observed on the fibers by TEM ([4]; 20 minutes of incubation with calcium and phosphate): only amorphous mineral deposit; mineral observed on the fibers by TEM ([4]; 30 minutes of incubation with calcium and phosphate): only amorphous mineral
